Reference: patent publication US20130336893A1 (Sanofi, published 2013)
*1 amine or outer side, *2 acyl side, *3 side chain or, on linkers, in order; H or OH if unused. Where no end group is shown, it is not given here. [ ]: non-standard residue; d: D form. The star is where a group is joined. Desaminohistidyl = O=C(CCc1c[nH]cn1)*; Ser(Me) = COC[C@H](N[*:1])C(=O)[*:2]; NMeQ = CN[C@@H](CCC(N)=O)C(=O)O

Legend:
human GLP-1 receptor = human GLP-1 receptor (human, UniProt P43220 24-463); assay: cell-based or functional assay
human glucagon receptor = human glucagon receptor (human, UniProt P47871 26-477); assay: cell-based or functional assay
human glucagon receptor, sequence (P47871 26-477): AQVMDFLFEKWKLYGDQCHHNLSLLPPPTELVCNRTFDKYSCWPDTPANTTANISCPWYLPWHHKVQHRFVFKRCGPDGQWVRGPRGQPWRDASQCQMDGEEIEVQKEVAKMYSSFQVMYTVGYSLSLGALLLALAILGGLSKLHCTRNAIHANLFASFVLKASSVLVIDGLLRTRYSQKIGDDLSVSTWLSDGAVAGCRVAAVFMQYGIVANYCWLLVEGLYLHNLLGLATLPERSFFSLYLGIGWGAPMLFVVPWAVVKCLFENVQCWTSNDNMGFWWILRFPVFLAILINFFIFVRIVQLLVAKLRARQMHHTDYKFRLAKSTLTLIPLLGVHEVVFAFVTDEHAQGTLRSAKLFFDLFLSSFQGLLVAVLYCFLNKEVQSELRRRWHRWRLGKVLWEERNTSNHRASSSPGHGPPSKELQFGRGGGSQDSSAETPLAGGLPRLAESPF

Row | Binder | EC50 hGLP-1R (cAMP formation) (human GLP-1 receptor) | EC50 hGlucagonR (cAMP formation) (human glucagon receptor)
1 | H[Ser(Me)]QGTFTSDLSKQMDSRRAQDFIEWLKNGGPSSGAPPPS-NH2 (N-terminus assumed; SMILES CC[C@H](C)[C@H](NC(=O)[C@H](Cc1ccccc1)NC(=O)[C@H](CC(=O)O)NC(=O)[C@H](CCC(N)=O)NC(=O)[C@H](C)NC(=O)[C@H](CCCNC(=N)N)NC(=O)[C@H](CCCNC(=N)N)NC(=O)[C@H](CO)NC(=O)[C@H](CC(=O)O)NC(=O)[C@H](CCSC)NC(=O)[C@H](CCC(N)=O)NC(=O)[C@H](CCCCN)NC(=O)[C@H](CO)NC(=O)[C@H](CC(C)C)NC(=O)[C@H](CC(=O)O)NC(=O)[C@H](CO)NC(=O)[C@@H](NC(=O)[C@H](Cc1ccccc1)NC(=O)[C@@H](NC(=O)CNC(=O)[C@H](CCC(N)=O)NC(=O)[C@H](COC)NC(=O)[C@@H](N)Cc1c[nH]cn1)[C@@H](C)O)[C@@H](C)O)C(=O)N[C@@H](CCC(=O)O)C(=O)N[C@@H](Cc1c[nH]c2ccccc12)C(=O)N[C@@H](CC(C)C)C(=O)N[C@@H](CCCCN)C(=O)N[C@@H](CC(N)=O)C(=O)NCC(=O)NCC(=O)N1CCC[C@H]1C(=O)N[C@@H](CO)C(=O)N[C@@H](CO)C(=O)NCC(=O)N[C@@H](C)C(=O)N1CCC[C@H]1C(=O)N1CCC[C@H]1C(=O)N1CCC[C@H]1C(=O)N[C@@H](CO)C(N)=O) [SEQ ID NO: (28)] | 0.128 nM | 6.48 nM
2 | H[dS]QGTFTSDLSKQMDSRRAKDFIEWLKNGGPSSGAPPPS-NH2 (N-terminus assumed; SMILES CC[C@H](C)[C@H](NC(=O)[C@H](Cc1ccccc1)NC(=O)[C@H](CC(=O)O)NC(=O)[C@H](CCCCN)NC(=O)[C@H](C)NC(=O)[C@H](CCCNC(=N)N)NC(=O)[C@H](CCCNC(=N)N)NC(=O)[C@H](CO)NC(=O)[C@H](CC(=O)O)NC(=O)[C@H](CCSC)NC(=O)[C@H](CCC(N)=O)NC(=O)[C@H](CCCCN)NC(=O)[C@H](CO)NC(=O)[C@H](CC(C)C)NC(=O)[C@H](CC(=O)O)NC(=O)[C@H](CO)NC(=O)[C@@H](NC(=O)[C@H](Cc1ccccc1)NC(=O)[C@@H](NC(=O)CNC(=O)[C@H](CCC(N)=O)NC(=O)[C@@H](CO)NC(=O)[C@@H](N)Cc1c[nH]cn1)[C@@H](C)O)[C@@H](C)O)C(=O)N[C@@H](CCC(=O)O)C(=O)N[C@@H](Cc1c[nH]c2ccccc12)C(=O)N[C@@H](CC(C)C)C(=O)N[C@@H](CCCCN)C(=O)N[C@@H](CC(N)=O)C(=O)NCC(=O)NCC(=O)N1CCC[C@H]1C(=O)N[C@@H](CO)C(=O)N[C@@H](CO)C(=O)NCC(=O)N[C@@H](C)C(=O)N1CCC[C@H]1C(=O)N1CCC[C@H]1C(=O)N1CCC[C@H]1C(=O)N[C@@H](CO)C(N)=O) [SEQ ID NO: (30)] | 0.0505 nM | 1.05 nM
3 | HS[NMeQ]GTFTSDLSKQMDSRRAQDFIEWLKNGGPSSGAPPPS-NH2 (N-terminus assumed; SMILES CC[C@H](C)[C@H](NC(=O)[C@H](Cc1ccccc1)NC(=O)[C@H](CC(=O)O)NC(=O)[C@H](CCC(N)=O)NC(=O)[C@H](C)NC(=O)[C@H](CCCNC(=N)N)NC(=O)[C@H](CCCNC(=N)N)NC(=O)[C@H](CO)NC(=O)[C@H](CC(=O)O)NC(=O)[C@H](CCSC)NC(=O)[C@H](CCC(N)=O)NC(=O)[C@H](CCCCN)NC(=O)[C@H](CO)NC(=O)[C@H](CC(C)C)NC(=O)[C@H](CC(=O)O)NC(=O)[C@H](CO)NC(=O)[C@@H](NC(=O)[C@H](Cc1ccccc1)NC(=O)[C@@H](NC(=O)CNC(=O)[C@H](CCC(N)=O)N(C)C(=O)[C@H](CO)NC(=O)[C@@H](N)Cc1c[nH]cn1)[C@@H](C)O)[C@@H](C)O)C(=O)N[C@@H](CCC(=O)O)C(=O)N[C@@H](Cc1c[nH]c2ccccc12)C(=O)N[C@@H](CC(C)C)C(=O)N[C@@H](CCCCN)C(=O)N[C@@H](CC(N)=O)C(=O)NCC(=O)NCC(=O)N1CCC[C@H]1C(=O)N[C@@H](CO)C(=O)N[C@@H](CO)C(=O)NCC(=O)N[C@@H](C)C(=O)N1CCC[C@H]1C(=O)N1CCC[C@H]1C(=O)N1CCC[C@H]1C(=O)N[C@@H](CO)C(N)=O) [SEQ ID NO: (25)] | 0.17 nM | 0.171 nM
4 | H[dS]QGTFTSDLSKQMDSRRAHDFIEWLKNGGPSSGAPPPS-NH2 (N-terminus assumed; SMILES CC[C@H](C)[C@H](NC(=O)[C@H](Cc1ccccc1)NC(=O)[C@H](CC(=O)O)NC(=O)[C@H](Cc1c[nH]cn1)NC(=O)[C@H](C)NC(=O)[C@H](CCCNC(=N)N)NC(=O)[C@H](CCCNC(=N)N)NC(=O)[C@H](CO)NC(=O)[C@H](CC(=O)O)NC(=O)[C@H](CCSC)NC(=O)[C@H](CCC(N)=O)NC(=O)[C@H](CCCCN)NC(=O)[C@H](CO)NC(=O)[C@H](CC(C)C)NC(=O)[C@H](CC(=O)O)NC(=O)[C@H](CO)NC(=O)[C@@H](NC(=O)[C@H](Cc1ccccc1)NC(=O)[C@@H](NC(=O)CNC(=O)[C@H](CCC(N)=O)NC(=O)[C@@H](CO)NC(=O)[C@@H](N)Cc1c[nH]cn1)[C@@H](C)O)[C@@H](C)O)C(=O)N[C@@H](CCC(=O)O)C(=O)N[C@@H](Cc1c[nH]c2ccccc12)C(=O)N[C@@H](CC(C)C)C(=O)N[C@@H](CCCCN)C(=O)N[C@@H](CC(N)=O)C(=O)NCC(=O)NCC(=O)N1CCC[C@H]1C(=O)N[C@@H](CO)C(=O)N[C@@H](CO)C(=O)NCC(=O)N[C@@H](C)C(=O)N1CCC[C@H]1C(=O)N1CCC[C@H]1C(=O)N1CCC[C@H]1C(=O)N[C@@H](CO)C(N)=O) [SEQ ID NO: (29)] | 0.028 nM | 0.149 nM
5 | [Desaminohistidyl]SQGTFTSDLSKQMDSRRAQDFIEWLKNGGPSSGAPPPS-NH2 (SMILES CC[C@H](C)[C@H](NC(=O)[C@H](Cc1ccccc1)NC(=O)[C@H](CC(=O)O)NC(=O)[C@H](CCC(N)=O)NC(=O)[C@H](C)NC(=O)[C@H](CCCNC(=N)N)NC(=O)[C@H](CCCNC(=N)N)NC(=O)[C@H](CO)NC(=O)[C@H](CC(=O)O)NC(=O)[C@H](CCSC)NC(=O)[C@H](CCC(N)=O)NC(=O)[C@H](CCCCN)NC(=O)[C@H](CO)NC(=O)[C@H](CC(C)C)NC(=O)[C@H](CC(=O)O)NC(=O)[C@H](CO)NC(=O)[C@@H](NC(=O)[C@H](Cc1ccccc1)NC(=O)[C@@H](NC(=O)CNC(=O)[C@H](CCC(N)=O)NC(=O)[C@H](CO)NC(=O)CCc1c[nH]cn1)[C@@H](C)O)[C@@H](C)O)C(=O)N[C@@H](CCC(=O)O)C(=O)N[C@@H](Cc1c[nH]c2ccccc12)C(=O)N[C@@H](CC(C)C)C(=O)N[C@@H](CCCCN)C(=O)N[C@@H](CC(N)=O)C(=O)NCC(=O)NCC(=O)N1CCC[C@H]1C(=O)N[C@@H](CO)C(=O)N[C@@H](CO)C(=O)NCC(=O)N[C@@H](C)C(=O)N1CCC[C@H]1C(=O)N1CCC[C@H]1C(=O)N1CCC[C@H]1C(=O)N[C@@H](CO)C(N)=O) [SEQ ID NO: (24)] | 0.264 nM | 0.168 nM
6 | HSEGTFTSDLSKQMDSRRAQDFIEWLKNGGPSSGAPPPS-NH2 [SEQ ID NO: (10)] | 0.0313 nM | 16.7 nM
